# Data as given in the nanobody polyreactivity screen of Harvey et al. (2022).
# Experiment: yeast display, Sf9 membrane polyspecificity reagent, FACS + sequencing; frameworks hold sequencing errors
# In short: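 A synthetic nanobody library was expressed on Saccharomyces cerevisiae BJ5465 by galactose induction for 36–48 hours. The library was stained for 1 hour at 4 °C with 10% biotinylated, detergent-solubilized Sf9 membrane reagent and enriched with streptavidin microbeads before FACS. Low and high (top ~1%) gates were set on anti-HA fluorescence for expression and streptavidin fluorescence for reagent binding, and each polyreactivity label reflects the gate of origin.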
row,Sequence,polyreactivity (PSR sort gate)
1,QVQLVESGGGLVQAGGSLRLSCAASGRTFKIYTMGWYRPAPGKERELVAAISRGGSTYYADSVKGRFTISRDNAKNTVYLQMNSLKPEDTAVYYCAVDLYYLSSASTRQVRRDYWGQGTQVTVSS,high polyreactivity
2,QVQLVESGGGLVQAGGSLRLSCAASGRTFKLYAMGWYRQAPGKERALVAAITESGGSTYYADSVKGRFTISRDNAKNTVYLQMNSLKPEDTAVYYCAAYASAGTRGGYDYWGQGTQVTVSS,low polyreactivity
3,QVQLVESGGGLVQAGGSLRLSCAASGRTFKPYAMGWYRPAPGKDRELVAAISTRGGSTYFADSVKGRFTISRDNAKNTVYLQMNSLKPEDTAVYYCAATQPVRDYDYWGQGTQVTVSS,low polyreactivity
4,QVQLVESGGGLVQAGGSLRLSCAASGRTFKPYAMGWYRQAPGKERELVAAISTGGSTNYADSVKGRFTISRDNAKNTVYLQMKSLKPEDTAVYYCAALYSYFWLIIDYGYWGQGTQVTVSS,low polyreactivity
5,QVQLVESGGGLVQAGGSLRLSCAASGRTFKPYAMGWYRQAPGKERELVAVITSNGSSTYYADSVKGRFTISRDNAKNTVYLQMNSLKPEDTAVYYCATKLTYTLTSGAYAYDYWGQGTQVTLSS,low polyreactivity
6,QVQLVESGGGLVQAGGSLRLSCAASGRTFKQYAMGWYRQAPGKERELVAAISRTGGRTYYADSVKGRFTISRDNAKNTVYLQMNSLKPEDTAVYYCNAVYYWYKGDYWGQGTQVTVSS,high polyreactivity
7,QVQLVESGGGLVQAGGSLRLSCAASGRTFKRYAMGWYRQAPGKERELVAVITSGGSTYYADSVKGRFTISRDNAKNTVYLQMNSLKPEDTAVYYCAARYGVRIWHDALYGYWGQGTQVTVSS,high polyreactivity
8,QVQLVESGGGLVQAGGSLRLSCAASGRTFKTYSMGWYRQAPGKERELVASISGSGSSTYYADSVKGRFTISRDNAKNSVYLQMKSRKPEDTAVYYCNAARSQGYEYATYGYWGQGTQVTVSS,low polyreactivity
9,QVQLVESGGGLVQAGGSLRLSCAASGRTFKTYVMGWYRQAPGKERELVAGITSGGGSTYYADSVKGRFTISRDNAKITVYLQMNSLKPEDTAVYYCAAVSKDGFWVSYYYWGQGTQVTVSS,high polyreactivity
10,QVQLVESGGGLVQAGGSLRLSCAASGRTFKVNAMGWYRQAPGKERELVAAITYSGGGTYYADSVKGRFTISRDNAKNTVYLQMNSLKPEDTAVYYCAAPVYTWYHRYDYWGQGTQVTVSS,high polyreactivity
11,QVQLVESGGGLVQAGGSLRLSCAASGRTFKVYAMGWYRQAPWKERDLVAAISFSGGSTYYADSVKGRFTISRDNAKNTDYLQMNSLKPEDTAVYYCAAKRYGEYRARGYYYWGQVTQVTVSS,high polyreactivity
12,QVQLVESGGGLVQAGGSLRLSCAASGRTFKYNAMGWYIQAPGKERELVAAISSRGGSTYYADSVKGRFTISRDNAKNTVYLQMNSLKPEDTAVYYCAKATSSSEYGYDYWGQGTQVTVSS,high polyreactivity
13,QVQLVESGGGLVQAGGSLRLSCAASGRTFKYNAMGWYRQAPGKERELVAAISNRGGSTYYADSVKGRFTISRDNAKNTVYLQMNSLKPEDTAVYYCAVRAVYRWSSGYGYWGQGTQVTVSS,high polyreactivity
14,QVQLVESGGGLVQAGGSLRLSCAASGRTFKYNAMGWYRQAPGKERELVAVISYDGSTYYADSVKGRFTISRDNAKNTVYLQMNSLKPEDTAVYYCAARYLDVRPYYYWGQGTQVTVSS,high polyreactivity
15,QVQLVESGGGLVQAGGSLRLSCAASGRTFKYYAMGWYRQAPGKERELVAAISSGGSTYYADSVKGRFTISRDNAKNTVYLQMNSLKPEDTAVYYCAAYSSYFRRRKWGYDYWGQGTQVTVSS,high polyreactivity
16,QVQLVESGGGLVQAGGSLRLSCAASGRTFKYYAMGWYRQAPGKERELVAAISWSGSSTNYADSVKGRFTISRDNAKNTVYLQMNSLKPEDTAVYYCAAATYRQFTGTYDYWGQGTQVTVSS,high polyreactivity
17,QVQLVESGGGLVQAGGSLRLSCAASGRTFKYYAMGWYRQAPGKERELVAGITGRGGGTYYADSVKGRFTISRDNAKNTVYLQMNSLKPEDTAVYYCAAERIYWKYYEYDYWGQGTEVTVSS,high polyreactivity
18,QVQLVESGGGLVQAGGSLRLSCAASGRTFKYYTMGWYRQAPGKERELVAAISASGGSTYYADSVKGRFTISRDNAKNTVYLQMNSLKPEDTAVYYCAKGANRAIHKQPTRSRLDSWGQGTQVTVSS,high polyreactivity
19,QVQLVESGGGLVQAGGSLRLSCAASGRTFLFNGMGWYRQAPGKERELVASITRGGSTYADSVKGRFTISRDNAKNTGYVQMNSLNPEDTAVYDCNAYFWFPYNYWGQGTQVTVSS,high polyreactivity
20,QVQLVESGGGLVQAGGSLRLSCAASGRTFLGYAMGCYRQAPGKERELVATITKRGSSTYYADSVKGRFTISRDNANNTVYLQMTSLKPEDTAVYYCAARRYPRRFAIDYWGQGTQVTVSS,high polyreactivity
21,QVQLVESGGGLVQAGGSLRLSCAASGRTFLIYAMGWYRQAPGKERELVAAINFSGGNTYYADSVKGRFTISRDNAKNTVYLQMNSLKPEDTAVYYCAARYRIGNNGYEYWGQGTQVTVSS,low polyreactivity
22,QVQLVESGGGLVQAGGSLRLSCAASGRTFLLNAMGWYRQAPGKERELVAAITRSGVITYYADSVKGRFTISRDNAKNTVYLQMNSLKPEDTAVYYCAAQLRYSYLRPSYYYWGQGTQVTVSS,high polyreactivity

row,Sequence,polyreactivity (PSR sort gate)
1,QVQLVESGGGLVQAGGSLRLSCAASGRTFLLYAMGWYRQAPGKERELVAAITWGGGSTYYADSVKGRFTISRDNAKNTVYLQMNSLKPEDTAVYYCAADGSWHGYGYWGQGTQVTVSS,low polyreactivity
2,QVQLVESGGGLVQAGGSLRLSCAASGRTFLPYAMGWYRQPPWKERELVAAISYRGVSTYYADSVKGRFTISRDNAKYSVYLQMNSLKAEDTAVYYCAARSWANYDFWGHGTQVTVSS,high polyreactivity
3,QVQLVESGGGLVQAGGSLRLSCAASGRTFLRNAMGWYRPAPGKERELVAAITSSGGRTYYADSVKGRFTISRDNAKNTVYLQMNSLKPEDTAVYYCATDTGWPGRDYWGQGPQVTVSS,high polyreactivity
4,QVQLVESGGGLVQAGGSLRLSCAASGRTFLRYAMGWYRQAPGKERELVAAITYGGRTNYADSVKGRFTISRDNAKNTVYLQMNSLKPEDTAVYYCAADRTYYYGLRVYYWGQGTQVTVSS,high polyreactivity
5,QVQLVESGGGLVQAGGSLRLSCAASGRTFLSNAMGWYRQEPGKERELVAAINSGDSTYYAYSVKGRFTISRYNAKNTVYLQMNSLKPEDTAVYYCAAAFYYRRMYYWGKGTQVTVSS,high polyreactivity
6,QVQLVESGGGLVQAGGSLRLSCAASGRTFLSYAMGWYRQAPGKEREFVASITLSGGSTYYADSVKGRFTISRDNAKNTVYLQMNSLKPEDTAVYYCNAELYWLPYDYWGQGTQVTVSS,low polyreactivity
7,QVQLVESGGGLVQAGGSLRLSCAASGRTFLSYAMGWYRQAPGKERELVATITRRGGSTYYADSVKGRFTISRDNAKNTVYLQMNSLKPEDTAVYYCAAYYRQYSSSEFGYWGQGTQVTVSS,high polyreactivity
8,QVQLVESGGGLVQAGGSLRLSCAASGRTFLSYTMGWYRQATGKERELVAAITTSGGSTNYADSVKGRFSISRDTAKNTVYLQMNRLKPEDTAVYYCADEWSVYFNDPRSDYWGQGTQVTVSS,high polyreactivity
9,QVQLVESGGGLVQAGGSLRLSCAASGRTFLTYAMGWYRQAPGKERELVAAITDGDSTNYADSVKGRFTISRDNAKNTVYLQMNSLKPEDTAVYYCNADSLAYRYYYWGKGTQVTVSS,high polyreactivity
10,QVQLVESGGGLVQAGGSLRLSCAASGRTFLVNAMGWYRQAPGKERELVAVITRGGSTNYADSVKGRFTISRDNAKNTVYLQMNSLKPEDTAVYYCAAEAYYGLWMDYWGQGTQVTVSS,low polyreactivity
11,QVQLVESGGGLVQAGGSLRLSCAASGRTFLVYAMGWYRQAPGKDRELVAAISSDGSTHYADSVKGRFTISRDNAKKTVYLQMNSLHPEDTAVYYCARDYYAFSYLYDYWGQGTQVTVSS,low polyreactivity
12,QVQLVESGGGLVQAGGSLRLSCAASGRTFLVYARGWYRQAPGKERELVATIRASTGSTYADSVKGRFTISRDNAKNTVYLQMNSLKPEDTAVYYCAAQPRYRHQTYNYWGQGTQVTVSS,high polyreactivity
13,QVQLVESGGGLVQAGGSLRLSCAASGRTFLVYTMGWYRQAPGKERELVAAISWSDGSTYYADSVKGRFTISRDNAKNTVYLQMNSLKPEDTAVYYCAARRTGYLYRYGYWGQGTQVTVSS,low polyreactivity
14,QVQLVESGGGLVQAGGSLRLSCAASGRTFLWYAMGWYRQAPGKERELVAAITTAGSTYYADSVKGLFTISRDNAKNTVYLLMNSLKPEDTAVYYCNRLTYAYPPPVLGVGHDSWGQGTQVTVSS,low polyreactivity
15,QVQLVESGGGLVQAGGSLRLSCAASGRTFLWYDMGWYRQAPGKERELVAGITSDGITYYADSVKGRFTISRDNAKNTVNLQMNSLKPEDTAVYYCAADGIYPDAVYFGYPMYYWGQGTQVTVSS,low polyreactivity
16,QVQLVESGGGLVQAGGSLRLSCAASGRTFLYNAMGWYREAPGTERELVAAISTNGSSTYYADSVKGRFTISRDNAKNTVYLQMNSLKPEDTAVYYCAAQPPLDYEFPYRYGYWGQGTQVTVSS,low polyreactivity
17,QVQLVESGGGLVQAGGSLRLSCAASGRTFLYNVMGWYRQAPGKERELVAAITSGGRTYYADSVKGRFTISRDNAKNTVYLQMNSLKPEVTAVYYCAADPYFYYYGYDYWGQGTQVTVSS,low polyreactivity
18,QVQLVESGGGLVQAGGSLRLSCAASGRTFLYYAMGWYRQAPGKERELVAAITWSGGSTYYADSVKGRFTISRDNAKNTVYLQMNSLKPEDTAVYYCAALGWIDWYWQPGMDYWGQGTQVTVSS,high polyreactivity
19,QVQLVESGGGLVQAGGSLRLSCAASGRTFLYYAMGWYRQAPGKERELVASISTGGSTNYADSVKGRFTISRDNAKNTVYLQMNSLKPEDTAVYYCATEYPYSYFSIAHYHHGYWGQGTQVTVSS,low polyreactivity
20,QVQLVESGGGLVQAGGSLRLSCAASGRTFMRNAMGLYRQAPGKERELVAAISRSGGSTYYADSVKGRFTISRDNAKNTVYLQMNSLKPEDTAVYYCAADDYGGYYYWGQGTQVTVSS,high polyreactivity
21,QVQLVESGGGLVQAGGSLRLSCAASGRTFNAMGWSRQAPGKERELVASISRRGGSTSYADSVKGRFTISRDNAKNTVYLQMYSLKPEDTAVYYCAARVGWVRYGYWGQGTQVTVSS,low polyreactivity
